Results: CN108264566A (SHANGHAI XINBAINUO BIOTECHNOLOGY CO LTD, dated 2018)

Columns and labels:
[1] = molecular target: T1, CD3-GITRL BsM_M; experiment: ELISA, plate coated with 1 μg/ml GITR-hFc, binder titrated from 10 μg/ml
T1 construct: made in CHO-S cells; also called 单体形式的抗CD3/GITRL双特异性分子

[2] = molecular target: T2, CD3-GITRL BsM_D; experiment: as above
T2 construct: Glycosylated, disulfide-linked homodimer through the IgD hinge linker; made in CHO-S cells; also called 二聚体形式的抗CD3/GITRL双特异性分子

[3] = molecular target: T3, CD3-OX40L BsM_M; experiment: ELISA, plate coated with 1 μg/ml OX40-hFc, binder titrated from 10 μg/ml
T3 construct: made in CHO-S cells; also called 单体形式的抗CD3/OX40L双特异性分子

[4] = molecular target: T4, CD3-OX40L BsM_D; experiment: as above
T4 construct: Glycosylated, disulfide-linked homodimer through the IgD hinge linker; made in CHO-S cells; also called 二聚体形式的抗CD3/OX40L双特异性分子

[5] = molecular target: T5, CD3-CD70BsM_D; experiment: ELISA, plate coated with 1 μg/ml CD27-hFc, binder titrated from 10 μg/ml
T5 construct: Glycosylated, disulfide-linked homodimer through the IgD hinge linker; made in CHO-S cells; also called 二聚体形式的抗CD3/CD70双特异性分子

[6] = molecular target: T6, CD3-CD70BsM_M; experiment: as above
T6 construct: made in CHO-S cells; also called 单体形式的抗CD3/CD70双特异性分子

[7] = molecular target: T7, CD3-B7RP-1BsM_M; experiment: ELISA, plate coated with 1 μg/ml ICOS-hFc, binder titrated from 10 μg/ml
T7 construct: made in CHO-S cells; also called 单体形式的抗CD3/B7RP-1双特异性分子

[8] = molecular target: T8, CD3-B7RP-1BsM_D; experiment: as above
T8 construct: Glycosylated, disulfide-linked homodimer through the IgD hinge linker; made in CHO-S cells; also called 二聚体形式的抗CD3/B7RP-1双特异性分子

B1: 人类GITR-hFc融合蛋白 (Fc fusion)
chain: QRPTGGPGCGPGRLLLGTGTDARCCRVHTTRCCRDYPGEECCSEWDCMCVQPEFHCGDPCCTTCRHHPCPPGQGVQSQGKFSFGFQCIDCASGTFSGGHEGHCKPWTDCTQFGFLTVFPGNKTHNAVCVPGSPPAEP
notes: Bought fusion protein; also called 重组蛋白GITR-hFc; not shown: human Fc (hFc) of the bought fusion protein
- binding result [1]: binds
- binding result [2]: binds

B2: 人类OX40-hFc融合蛋白 (Fc fusion)
chain: LHCVGDTYPSNDRCCHECRPGNGMVSRCSRSQNTVCRPCGPGFYNDVVSSKPCKPCTWCNLRSGSERKQLCTATQDTVCRCRAGTQPLDSYKPGVDCAPCPPGHFSPGDNQACKPWTNCTLAGKHTLQPASNSSDAICEDRDPPATQPQETQGPPARPITVQPTEAWPRTSQGPSTRPVEVPGGRA
notes: Bought fusion protein; also called 重组蛋白OX40-hFc; not shown: human Fc (hFc) of the bought fusion protein
- binding result [3]: binds
- binding result [4]: binds

B3: 人类CD27-hFc融合蛋白 (Fc fusion)
chain: ATPAPKSCPERHYWAQGKLCCQMCEPGTFLVKDCDQHRKAAQCDPCIPGVSFSPDHHTRPHCESCRHCNSGLLVRNCTITANAECACRNGWQCRDKECTECDPLPNPSLTARSSQALSPHPQPTHLPYVSEMLEARTAGHMQTLADFRQLPARTLSTHWPPQRSLCSSDFIR
notes: Bought fusion protein; also called 重组蛋白CD27-hFc; not shown: human Fc (hFc) of the bought fusion protein
- binding result [5]: binds
- binding result [6]: binds

B4: 人类ICOS-hFc融合蛋白 (Fc fusion)
chain: EINGSANYEMFIFHNGGVQILCKYPDIVQQFKMQLLKGGQILCDLTKTKGSGNTVSIKSLKFCHSQLSNNSVSFFLYNLDHSHANYYFCNLSIFDPPPFKVTLTGGYLHIYESQLCCQLK
notes: Bought fusion protein; also called 重组蛋白ICOS-hFc; not shown: human Fc (hFc) of the bought fusion protein
- binding result [7]: binds
- binding result [8]: binds
